Values after ≈ are worked out from the molar mass of the structure shown. Values joined by “and” are separate entries in the source; they are usually repeats but may differ in a detail not shown here. Equal values may be shown once. “Also recorded” adds a separate entry of the source. Read-outs that look alike come from different tables or passages of the source. A value given as a limit tells only on which side of the number the result lay.

Assay [1] relates to vancomycin-resistant Enterococcus faecalis (ATCC 700802). The assay is classed as cell-based. As to conditions: MH medium.
Assay [2] has as its system Nesseria meningitidis (No. 29332). The experiment in a line: Minimum inhibitory concentration by agar dilution method. The assay is classed as cell-based. Particulars: Embodiment 4, FIG. 6A, blood-chocolate medium with Columbia blood agar base.
Assay [3] relates to methicillin-resistant Staphylococcus aureus (ATCC BAA-42). The description is as above. The assay is classed as cell-based.
Assay [4] concerns multi-drug resistant Pseudomonas aeruginosa (isolated by West China Hospital, No. 13578). The assay is described as above. In kind it is cell-based. As to conditions: for MIC in terms of molecular weight standard: Embodiment 3, converted from μg/ml; for MIC: MH medium.
Assay [5] relates to Mycobacterium tuberculosis (the standard strains H37RV). Kind of assay: In vivo protection of mice infected by Mycobacterium tuberculosis. Also noted: species or system BalB/c mice. As to conditions: for weight of mice during experiment: during 5 weeks treatment; for lung by microscope (pathological section): 5 weeks treatment, magnification 200, FIG. 11.
Assay [6] has as its system Nesseria meningitidis (No. 29332). The experiment in a line: In vivo protection of mice infected by fatal dose of Nesseria meningitidis. Particulars: 1.5 mg/kg intravenous 1 hour after intraperitoneal fatal dose; for survival rate in 8 days: 10 mice per group. How it is done:
The mice were given an intraperitoneal injection of glucose solution of ferrous by 20 mg/kg, and 1 hour later an intraperitoneal injection of 0.5 ml of bacteria culture containing 1 share of Nesseria meningitidis cultrue solution (its CFU was 2.36×10^9/ml) and 1.5 share of 5% dry yeast solution. One hour later after being given intraperitoneal injection of fatal dose of the bacteria culture, the mice in experimental group were given an intravenous injection of the drugs and the mice in control group were given an intravenous injection of normal saline, all drugs were injected by 1.5 mg/kg), observation every 2 hours for 8 days, the death of mice as the positive results.

For assay [7], the system named is Nesseria meningitidis strain No. 29332. Kind of assay: Inhibiting effect on growth of Nesseria meningitidis in liquid culture (growth curve, optical density). The assay is classed as cell-based. Particulars: 5 and 10 μg/ml, rabbit blood-chocolate medium, 37° C., hourly A595 nm, FIG. 4. Here is the method: The bacteria was strain No. 29332 Nesseria meningitidis (No. 29332 of bacteria Preservation Center in China, i.e. Center of Medical Devices of National Institute for the Control of Pharmaceutical & biological Products, SDA), two microlitres (μl) of bacteria solution (10^5 CFU/ml) was added in 10 ml rabbit blood-chocolate medium containing 50 mg beef extract, 100 mg tryptone, 50 mg NaCl, 30 mg K2HPO4 and 0.5-0.8 ml off fiber rabbit blood. Five groups were prepared. The first group was added 0.3 M NaCl+50 mM boric acid buffer fluid (i.e. blank preservative fluid for the novel antibiotic, by the same volume with the novel antibiotic solution in the group 4 and 5) as control. Penicillin sodium was added in the second group by 5 μg/ml. The novel antibiotic PMC-AM1 was added in the third group by 5 μg/ml. The novel antibiotic PMC-AM2 was added in the forth group by 5 μg/ml. The novel antibiotic PMC-AM1 was added in the fifth group by 10 μg/ml.
Reactant liquid of the above five groups were respectively put into 100 ml conical flask, and cultured at 37° C. by 200 rpm 100 μl culture solution was sampled per hour and added onto 96-pore ELISA plate for measuring bacteria grown cloudiness by spectrophotometer (A595 nm) color comparison. The bacteria-growth curve was drawn up to compare the bacteriostasis efficacy of novel antibiosis.

The mark [8] stands for this setting: Embodiment 4, FIG. 6C, BM medium.
Setting [9] is: Pseudomonas aeruginosa, Embodiment 3, agar dilution, 37° C. 18-24 hours, FIG. 5, read-out: MIC.
Where [10] appears, read: Embodiment 3, agar dilution, 37° C. 18-24 hours, FIG. 5.
Setting [11] is: Embodiment 5, FIG. 7B, MH medium.

As for `CC1(C)S[C@@H]2[C@H](NC(=O)[C@H](N)c3ccccc3)C(=O)N2[C@H]1C(=O)O` [ampicillin, reference compound], the MIC in assay [1] (Embodiment 4, FIG. 6B) worked out at 10.78 nmol; in assay [2] it was 1.35 nmol; in assay [3] (setting [8]), 21.55 nmol.
Consider `CC(C)(O/N=C(\C(=O)N[C@@H]1C(=O)N2C(C(=O)[O-])=C(C[n+]3ccccc3)CS[C@H]12)c1csc(N)n1)C(=O)O` [ceftazidime], for which the MIC is 3.02 nmol in assay [2]; 29.3 nmol in assay [4] (Embodiment 4, FIG. 6D); 16 µg/mL (≈ 29.3 µM) in assay [4] (setting [9]). In assay [4], the “MIC in terms of molecular weight standard” value (“MIC in terms” below) amounted to 29.3 nmol.
Regarding `NNC(=O)c1ccncc1` [isoniazid, reference compound], in assay [5], the “weight of mice during experiment” value is on record as “rise”.
Consider `C[C@H]1COc2c(N3CCN(C)CC3)c(F)cc3c(=O)c(C(=O)O)cn1c23` [levofloxacin], for which the “MIC in terms” value in assay [4] was found to be 43.2 nmol. Further, the MIC in assay [4] (Embodiment 4, FIG. 6D) came to 43.2 nmol; in assay [4] (setting [9]) it was 8 µg/mL (≈ 22.1 µM).
The molecule `Cc1onc(-c2ccccc2)c1C(=O)N[C@@H]1C(=O)N2[C@@H]1SC(C)(C)[C@@H]2C(=O)O` [oxacillin, reference compound] displayed an MIC in assay [3] (setting [8]) of 14.1 nmol.
In assay [1] (Embodiment 4, FIG. 6B), `CN[C@H](CC(C)C)C(=O)N[C@H]1C(=O)N[C@@H](CC(N)=O)C(=O)N[C@H]2C(=O)N[C@H]3C(=O)N[C@H](C(=O)N[C@H](C(=O)O)c4cc(O)cc(O)c4-c4cc3ccc4O)[C@H](O)c3ccc(c(Cl)c3)Oc3cc2cc(c3O[C@@H]2O[C@H](CO)[C@@H](O)[C@H](O)[C@H]2O[C@H]2C[C@](C)(N)[C@H](O)[C@H](C)O2)Oc2ccc(cc2Cl)[C@H]1O` [vancomycin, reference compound] returned an MIC of 21.54 nmol.
On to gentamicin, for which, in assay [6], the “survival rate in 8 days” value was found to be 50%. In addition, the MIC result is “greater than 512 μg/ml” in assay [4] (setting [10]) and more than 889.4 nmol in assay [4] (Embodiment 4, FIG. 6D). Further, the “MIC in terms” value in assay [4] is listed as “greater than 890 nMol”.
Turning to penicillin, the “death of mice (survival outcome in words)” value in assay [6] is on record as “all died in two days”.

B1: Colicin Ia (protein, UniProt P06716 1-626, looked up)
Colicin-Ia: MSDPVRITNPGAESLGYDSDGHEIMAVDIYVNPPRVDVFHGTPPAWSSFGNKTIWGGNEWVDDSPTRSDIEKRDKEITAYKNTLSAQQKENENKRTEAGKRLSAAIAAREKDENTLKTLRAGNADAADITRQEFRLLQAELREYGFRTEIAGYDALRLHTESRMLFADADSLRISPREARSLIEQAEKRQKDAQNADKKAADMLAEYERRKGILDTRLSELEKNGGAALAVLDAQQARLLGQQTRNDRAISEARNKLSSVTESLNTARNALTRAEQQLTQQKNTPDGKTIVSPEKFPGRSSTNHSIVVSGDPRFAGTIKITTSAVIDNRANLNYLLSHSGLDYKRNILNDRNPVVTEDVEGDKKIYNAEVAEWDKLRQRLLDARNKITSAESAVNSARNNLSARTNEQKHANDALNALLKEKENIRNQLSGINQKIAEEKRKQDELKATKDAINFTTEFLKSVSEKYGAKAEQLAREMAGQAKGKKIRNVEEALKTYEKYRADINKKINAKDRAAIAAALESVKLSDISSNLNRFSRGLGYAGKFTSLADWITEFGKAVRTENWRPLFVKTETIIAGNAATALVALVFSILTGSALGIIGYGLLMAVTGALIDESLVEKANKFWGI
notes: Wild-type bacterial toxin secreted by E. coli forming ion channels
Turning to B1, in assay [5], the “lung by microscope (pathological section)” value is on record as “the injury was little slighter than the control mouse's”. Moreover, the “mice died before sacrifice (from the forth week)” value in assay [5] (mouse, in vivo) was found to be 1 mouse. Moreover, the MIC in assay [1] (Embodiment 5, FIG. 7A) worked out at 0.91 nmol; in assay [4] (Embodiment 5, FIG. 7C), 0.91 nmol; in assay [3] (setting [11]), 0.23 nmol.

B2: PMC-AM1: Fusion of antibody mimetic AM1 (VHCDR1-VHFR2-VLCDR3, Seq ID No.2) to C-terminus of Colicin Ia; Seq ID No.6 (protein)
chain: SDPVRITNPGAESLGYDSDGHEIMAVDIYVNPPRVDVFHGTPPAWSSFGNKTIWGGNEWVDDSPTRSDIEKRDKEITAYKNTLSAQQKENENKRTEAGKRLSAAIAAREKDENTLKTLRAGNADAADITRQEFRLLQAELREYGFRTEIAGYDALRLHTESRMLFADADSLRISPREARSLIEQAEKRQKDAQNADKKAADMLAEYERRKGILDTRLSELEKNGGAALAVLDAQQARLLGQQTRNDRAISEARNKLSSVTESLNTARNALTRAEQQLTQQKNTPDGKTIVSPEKFPGRSSTNHSIVVSGDPRFAGTIKITTSAVIDNRANLNYLLSHSGLDYKRNILNDRNPVVTEDVEGDKKIYNAEVAEWDKLRQRLLDARNKITSAESAVNSARNNLSARTNEQKHANDALNALLKEKENIRNQLSGINQKIAEEKRKQDELKATKDAINFTTEFLKSVSEKYGAKAEQLAREMAGQAKGKKIRNVEEALKTYEKYRADINKKINAKDRAAIAAALESVKLSDISSNLNRFSRGLGYAGKFTSLADWITEFGKAVRTENWRPLFVKTETIIAGNAATALVALVFSILTGSALGIIGYGLLMAVTGALIDESLVEKANKFWGISYWLHWIKQRPGQGLWIGSQSTHVPRT
modifications: The amino acid sequence of antibiotic PMC-AM1
Take B2: the “lung by microscope (pathological section)” value in assay [5] is “intact but had a little of cellular infiltration in parts”. The “weight of mice during experiment” value in assay [5] is “rise”. The “observation of the mice's lung (TB nodules, necrosis)” value in assay [5] (mouse, in vivo, ip) is “intact, and had no nodules and necrosis of tuberculosis; also recorded: no TB nodules and necrosis”. Further, the MIC in assay [1] (Embodiment 4, FIG. 6B) turned out to be 0.23 nmol; in assay [1] (Embodiment 5, FIG. 7A), 0.23 nmol; in assay [2], 0.11 nmol; in assay [4] (setting [10]), 8 µg/mL; in assay [4] (Embodiment 4, FIG. 6D), 0.91 nmol; in assay [4] (Embodiment 5, FIG. 7C), 0.23 nmol. In addition, the MIC in assay [3] (setting [8]) and in assay [3] (setting [11]) was 0.06 nmol throughout. For the same molecule, the “survival rate in 8 days” value in assay [6] turned out to be 90%. Moreover, the “bacteria growth (bacteriostasis efficacy, growth curve)” value in assay [7] is “can only be restrained by PMC-AM1”. Further, the “MIC in terms” value in assay [4] amounted to 0.23 nmol. Besides, in assay [4] (Embodiment 3, ratio of molar MICs), the “antibacterial effect stronger than ceftazidime, levofloxacin and gentamicin” value was 127 to 3800 times and 127-3800 times.

Source of the values: patent publication US9073989B2, “Antibiotic comprising an antibody mimetic, its preparation methods and uses thereof” (PROTEIN DESIGN LAB, LTD, priority 2011, dated 2015).
